Patent US20160251409A1

Target: GPIIb/IIIa receptor on platelets (human) (UniProt P08514)
Assay: cell-based or functional assay

Platelet aggregation, 30 nM, SFLLRN 10 µM activated platelets: 60.7 % of control
Substance: Abciximab (ReoPro®) (Fab)
